1 molecule from patent US20160009821A1 (TDW GROUP, published 2016) can be followed below.

For this assay, the target named is T1, Human argininosuccinate synthase (endogenous, in human tissues and human cancer cell lines) (human, UniProt P00966 1-412).
T1 construct: Endogenous protein in formalin-fixed, paraffin-embedded human tissue and cell line sections, with cytoplasmic staining; also called ASS; ASS1
T1 sequence: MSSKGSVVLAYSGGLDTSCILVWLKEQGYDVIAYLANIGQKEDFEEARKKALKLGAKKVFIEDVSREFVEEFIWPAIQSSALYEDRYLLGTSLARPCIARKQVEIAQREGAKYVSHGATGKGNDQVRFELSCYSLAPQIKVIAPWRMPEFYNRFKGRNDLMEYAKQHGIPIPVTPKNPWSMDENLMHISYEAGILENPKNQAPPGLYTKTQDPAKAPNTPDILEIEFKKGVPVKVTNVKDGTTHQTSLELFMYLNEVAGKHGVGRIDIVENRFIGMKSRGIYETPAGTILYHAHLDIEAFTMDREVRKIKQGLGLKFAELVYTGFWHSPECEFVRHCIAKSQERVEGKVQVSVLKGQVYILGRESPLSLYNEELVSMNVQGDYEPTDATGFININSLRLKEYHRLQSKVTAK
Put plainly: immunohistochemistry on formalin-fixed, paraffin-embedded clinical samples. On the procedure:
Formalin-fixed, paraffin-embedded specimens were sectioned at 4-5 μm and mounted on positively charged slides. Slides were air dried and then placed in a 60° C. oven for 60 minutes. Slides were stained using the Leica Bond III instrument. Paraffin was removed from the slides using the standard Leica Bond dewax protocol. The tissue was antigen retrieved with either Bond ER1 for 5 or Bond ER2 for 20 minutes.
Mouse anti-argininosuccinate synthase monoclonal antibody was applied to the slide at a concentration of 0.625 μg/mL and incubated for 15 min or 0.4 μg/mL and incubated for 30 minutes. The Leica Bond Polymer Refine Detection kit was used to visualize the staining—post primary for 8 minutes and polymer for 8 minutes. The slides were then treated with Peroxide Block for five minutes followed by Mixed DAB Refine for ten minutes. Stained sections were counterstained with hematoxylin for […] The slides were then dehydrated and cover-slipped.

B1: Mouse anti-argininosuccinate synthase monoclonal antibody used for immunohistochemistry in Example 2 (antibody, V domains shown)
VH: QIQLVQSGPELKKPGETVKISCKTSGYTFTDYSIHWVKQAPGKGLTWMGWINTETGEPTYADDFKGRFALSLETSASTAYLQLKNLRNEDTATYFCGSSYSYWGQGTLVTVSS
VL: DVVMTQTPLSLPVSLGDQASISCRSSQSLENSNGKTYLNWFLQKPGQSPQLLIYRVSNRFSGVPDRFSGSGSGTEFTLKISRVEAEDLGVYFCLQVKHVPWTFGGGTKLEIK
Turning to B1, the binding result is “binds”.
